The values below come from the Human Domainome abundance scans (Beltran et al. 2025).

Sequences and labels used below:
B1: Triacylglycerol hydrolase DDHD2, residues 389 to 447; numbered along this chain, O94830 (parent)
chain: TLEEDLKKLQLSEFFDIFEKEKVDKEALALCTDRDLQEIGIPLGPRKKILNYFSTRKNS

± gives the uncertainty stated by the source.

This data set covers variants of B1. The experiment in a line: abundance fitness (aPCA) (normalised: wild type 0, dead -1); higher = more abundant; growth selection in yeast, the domain comes from the species named. The settings on record: Homo sapiens.
With TLEEDLKKLQLSEFFDIFEKEKVDKEALRLCTDRDLQEIGIPLGPRKKILNYFSTRKNS [A29R], the abundance fitness was found to be 0.011 ± 0.064.

As for TLEEDLKKLQLSEFFDIFEKEKVDKEALFLCTDRDLQEIGIPLGPRKKILNYFSTRKNS [A29F], the abundance fitness was -0.066 ± 0.098.

Regarding TLEEDLKKLQLSEFFDIFEKEKVDKEALWLCTDRDLQEIGIPLGPRKKILNYFSTRKNS [A29W], the abundance fitness was -0.399 ± 0.09.

For TLEEDLKKLQLSEFFDIFEKEKVDKEALHLCTDRDLQEIGIPLGPRKKILNYFSTRKNS [A29H], the abundance fitness came to 0.06 ± 0.11.

For the variant TLEEDLKKLQLSEFFDIFEKEKVDKEALVLCTDRDLQEIGIPLGPRKKILNYFSTRKNS [A29V], the abundance fitness was -0.401 ± 0.084.

Consider TLEEDLKKLQLSEFFDIFEKEKVDKEALPLCTDRDLQEIGIPLGPRKKILNYFSTRKNS [A29P], for which the abundance fitness was 0.03 ± 0.091.

Take TLEEDLKKLQLSEFFDIFEKEKVDKEALILCTDRDLQEIGIPLGPRKKILNYFSTRKNS [A29I]: the abundance fitness stood at 0.012 ± 0.11.

With TLEEDLKKLQLSEFFDIFEKEKVDKEALTLCTDRDLQEIGIPLGPRKKILNYFSTRKNS [A29T], the abundance fitness was found to be 0.032 ± 0.089.

Regarding TLEEDLKKLQLSEFFDIFEKEKVDKEALCLCTDRDLQEIGIPLGPRKKILNYFSTRKNS [A29C], the abundance fitness is -0.23 ± 0.086.

For TLEEDLKKLQLSEFFDIFEKEKVDKEALLLCTDRDLQEIGIPLGPRKKILNYFSTRKNS [A29L], the abundance fitness was -0.323 ± 0.071.

With TLEEDLKKLQLSEFFDIFEKEKVDKEALMLCTDRDLQEIGIPLGPRKKILNYFSTRKNS [A29M], the abundance fitness is -0.156 ± 0.11.

Turning to TLEEDLKKLQLSEFFDIFEKEKVDKEALNLCTDRDLQEIGIPLGPRKKILNYFSTRKNS [A29N], the abundance fitness came out at 0.142 ± 0.099.

As for TLEEDLKKLQLSEFFDIFEKEKVDKEALSLCTDRDLQEIGIPLGPRKKILNYFSTRKNS [A29S], the abundance fitness turned out to be 0.106 ± 0.063.

Consider TLEEDLKKLQLSEFFDIFEKEKVDKEALELCTDRDLQEIGIPLGPRKKILNYFSTRKNS [A29E], for which the abundance fitness came out at 0.005 ± 0.11.

Take TLEEDLKKLQLSEFFDIFEKEKVDKEALGLCTDRDLQEIGIPLGPRKKILNYFSTRKNS [A29G]: the abundance fitness is -0.191 ± 0.074.

Turning to TLEEDLKKLQLSEFFDIFEKEKVDKEALDLCTDRDLQEIGIPLGPRKKILNYFSTRKNS [A29D], the abundance fitness was -0.264 ± 0.12.

TLEEDLKKLQLSEFFDIFEKEKVDKEALALCTDADLQEIGIPLGPRKKILNYFSTRKNS [R34A]: the abundance fitness turned out to be 0.216 ± 0.077.

Regarding TLEEDLKKLQLSEFFDIFEKEKVDKEALALCTDEDLQEIGIPLGPRKKILNYFSTRKNS [R34E], the abundance fitness was found to be 0.463 ± 0.084.

Turning to TLEEDLKKLQLSEFFDIFEKEKVDKEALALCTDCDLQEIGIPLGPRKKILNYFSTRKNS [R34C], the abundance fitness turned out to be 0.011 ± 0.093.

TLEEDLKKLQLSEFFDIFEKEKVDKEALALNTDRDLQEIGIPLGPRKKILNYFSTRKNS [C31N]: the abundance fitness was -0.304 ± 0.11.

In the case of TLEEDLKKLQLSEFFDIFEKEKVDKEALALLTDRDLQEIGIPLGPRKKILNYFSTRKNS [C31L], the abundance fitness was 0.526 ± 0.065.

On to TLEEDLKKLQLSEFFDIFEKEKVDKEALALRTDRDLQEIGIPLGPRKKILNYFSTRKNS [C31R], for which the abundance fitness was -0.188 ± 0.071.

In the case of TLEEDLKKLQLSEFFDIFEKEKVDKEALALSTDRDLQEIGIPLGPRKKILNYFSTRKNS [C31S], the abundance fitness stood at 0.165 ± 0.063.

Consider TLEEDLKKLQLSEFFDIFEKEKVDKEALALYTDRDLQEIGIPLGPRKKILNYFSTRKNS [C31Y], for which the abundance fitness was determined as 0.626 ± 0.11.

With TLEEDLKKLQLSEFFDIFEKEKVDKEALALITDRDLQEIGIPLGPRKKILNYFSTRKNS [C31I], the abundance fitness is 0.035 ± 0.1.

With TLEEDLKKLQLSEFFDIFEKEKVDKEALALPTDRDLQEIGIPLGPRKKILNYFSTRKNS [C31P], the abundance fitness was -0.196 ± 0.11.

Take TLEEDLKKLQLSEFFDIFEKEKVDKEALALTTDRDLQEIGIPLGPRKKILNYFSTRKNS [C31T]: the abundance fitness was 0.145 ± 0.1.

On to TLEEDLKKLQLSEFFDIFEKEKVDKEALALETDRDLQEIGIPLGPRKKILNYFSTRKNS [C31E], for which the abundance fitness is -0.366 ± 0.099.

For TLEEDLKKLQLSEFFDIFEKEKVDKEALALATDRDLQEIGIPLGPRKKILNYFSTRKNS [C31A], the abundance fitness was 0.343 ± 0.065.

Consider TLEEDLKKLQLSEFFDIFEKEKVDKEALALGTDRDLQEIGIPLGPRKKILNYFSTRKNS [C31G], for which the abundance fitness is -0.294 ± 0.059.

As for TLEEDLKKLQLSEFFDIFEKEKVDKEALALQTDRDLQEIGIPLGPRKKILNYFSTRKNS [C31Q], the abundance fitness was -0.145 ± 0.13.

Consider TLEEDLKKLQLSEFFDIFEKEKVDKEALALMTDRDLQEIGIPLGPRKKILNYFSTRKNS [C31M], for which the abundance fitness worked out at 0.977 ± 0.084.

In the case of TLEEDLKKLQLSEFFDIFEKEKVDKEALALKTDRDLQEIGIPLGPRKKILNYFSTRKNS [C31K], the abundance fitness was determined as 0.489 ± 0.094.

As for TLEEDLKKLQLSEFFDIFEKEKVDKEALALFTDRDLQEIGIPLGPRKKILNYFSTRKNS [C31F], the abundance fitness was 0.605 ± 0.072.

As for TLEEDLKKLQLSEFFDIFEKEKVDKEALALWTDRDLQEIGIPLGPRKKILNYFSTRKNS [C31W], the abundance fitness is 0.44 ± 0.08.

As for TLEEDLKKLQLSEFFDIFEKEKVDKEALAQCTDRDLQEIGIPLGPRKKILNYFSTRKNS [L30Q], the abundance fitness is 0.238 ± 0.12.

For the variant TLEEDLKKLQLSEFFDIFEKEKVDKEALAGCTDRDLQEIGIPLGPRKKILNYFSTRKNS [L30G], the abundance fitness was 0.452 ± 0.068.

As for TLEEDLKKLQLSEFFDIFEKEKVDKEALASCTDRDLQEIGIPLGPRKKILNYFSTRKNS [L30S], the abundance fitness is 0.489 ± 0.058.

For TLEEDLKKLQLSEFFDIFEKEKVDKEALAVCTDRDLQEIGIPLGPRKKILNYFSTRKNS [L30V], the abundance fitness was determined as 0.329 ± 0.075.

Regarding TLEEDLKKLQLSEFFDIFEKEKVDKEALADCTDRDLQEIGIPLGPRKKILNYFSTRKNS [L30D], the abundance fitness amounted to 0.423 ± 0.093.

On to TLEEDLKKLQLSEFFDIFEKEKVDKEALATCTDRDLQEIGIPLGPRKKILNYFSTRKNS [L30T], for which the abundance fitness worked out at 0.556 ± 0.081.

For the variant TLEEDLKKLQLSEFFDIFEKEKVDKEALAKCTDRDLQEIGIPLGPRKKILNYFSTRKNS [L30K], the abundance fitness turned out to be 0.642 ± 0.083.

TLEEDLKKLQLSEFFDIFEKEKVDKEALAHCTDRDLQEIGIPLGPRKKILNYFSTRKNS [L30H]: the abundance fitness stood at 0.377 ± 0.11.

TLEEDLKKLQLSEFFDIFEKEKVDKEALARCTDRDLQEIGIPLGPRKKILNYFSTRKNS [L30R]: the abundance fitness turned out to be 0.581 ± 0.061.

Take TLEEDLKKLQLSEFFDIFEKEKVDKEALAFCTDRDLQEIGIPLGPRKKILNYFSTRKNS [L30F]: the abundance fitness was -0.031 ± 0.096.
